For 19 sequences, protein production results are on record in a protein production outcome set (Wang et al. 2014).

A short description of the data set: label from the status in PepcDB records.
“SAAPVDLELKKAFTELQAKVIDTQQKVKLADIQIEQLNRTKKHAHLTDTEIMTLVDETNMYEGVGRMFILQSKEAIHSQLLEKQKIAEEKIKELEQKKSYLERSVKEAEDNIREMLMARRAQ”: the protein production entry is recorded as “failed”.
In the case of “MNQEIAYLHPVKTARALVLVYLCFSVPIVAMGLFVAFIRYGDLPGITVFTALILNALIGFGLLWLGCKAYNWVAARFGGIEVHVRELTPEDRQ”, the protein production entry is listed as “failed”.
Turning to “MQITAAAQHDYQQAIAAYQAGEFEAAIAQLDRLLGDVPDWAAALGLQGLCYYCCDQRETGITLLRRAIALDPTDPTHFNNLGNLLQRQGHLTEALERLTQALAIDPTHVAARFNRAITLQKLGDPATALQDYQQLLEADPDNPEIRYNSAHAALAIGDWDFGLPAYEARCQQLQHFPEIEASLKLPRWQGQDLDQQTLLVWGEQGFGDRLMGARWIPLLRQRYPQARIVWQTSPSLVRLFQTLADDRLMVLAEGAELPVCDWQVPLLSLMLIFQSDRNRLPWHGPYFFPHKGDFLPASDRPRLGLVWSAGRNPAQSAEFAANKSCPLALLWSVLSVSGWDVVSLQVDEARQDLQTLSDPLLDLGSEIGDFQDTVDRLAHLDLLITVDTAIAHLGGMIGLPTWVLLPAVPDWRWELSGATTPWYPSLRLFRQPSPGDWSGAIAELQTALAEFQPAPQHWDYRGELSIADWIQAADRAFTAQNWPRAEWLIRQAVAIAPEEPSFHRALGRSLKQQGDYAGAAQALAIACELAPTQAEFWHERSSLEYYDNQLTAALNSLNQAIALQGATADHLISRGVLHYRLGQFPESCADYDAAAAIAPESPLLRCNRGFLQLHWGNWLQGWPDLEVRFDFQSDLDPFQYRQLAPAWQGEPLGQQTLLIWGEQGLGDHLLFCRWLPELRLQHPQAQLIFVTDPLLERLMQQLADDRLQICCLDEPVPACDRQVALMSLPAIAQTTPATVPWRGAYFQSSMPPLRCAETLQVGFVWASGKRSSPETARLYREKSCPLNELLPALLAVPAVDYYSFQVGADVAELQPWLEQSDRLFDLSEQLQDFQDTADWLAEMDVLISVDTAVANLAGMMALPVWTLLPEPANWRWGLTGHTTPWYPSMRLYRQTQRGNWSGAIAQIQQDLQQLSRDRDCLVT”, the protein production result was “failed”.
For “MAAPLIPVLTAPTAAGKTALALRLAREYGLEIVAADAFTVYRGLDLGTAKPTPQERASVPHHLLDVVDVTQSYDVAQYAAQAEAAIVDILARGRLPLVVGGTGFYLSALSRGLPLTPPSDPKMRAALEAELQERGLDALLAEIEQANPAEAARMERNPRRVVRALEVYRAAGRFPGEFGYSPPAFQYQVFAFSPPAAEMEQRVQERTAAMLRAGWPQEAQWLAGQVPPEQEPRPTVWQALGYAEALAVAQGRLSLAGAEQAIALATRQYGKRQLTWMRRQLGAEVQSPDAAEAHLRAFLERSGAPSLEHHHHHH” the value was “failed”.
Take “MNRSLWTQWSIASVIVLFCAFCLYSPAHAGVDEDLVRAVEDNKTHRVRDLLTKGASPDARDLQSETALMLAARNKNPEMGGLLLEAGANPDLRNKYGETATMLACYYGQLDLVKRLYAKGAKIDHDGWNPLIYAASKGYKEIVEFLLNYGVRIDAATDNGTTALMMAVRGNHYDTVELLLKHGANALIRNEADGTALGWARKQGHTSIVQLLTRNGTAD”: the protein production entry is recorded as “failed”.
For “MLEKVFQEITNKRKFFASSSTGEQFENQFRNELKKHFSEINGDLTEELSHIEEKPNKEIKTTFNQLKKQVLEKNHPHTLKNPFSNLTSHFLYQPFGSQNYPDFLVFIFDYVVGIEIKFSKNDKGEKNLQTSRPMWNSNLPKPNAIYVYGVANANITFFKGSDILSYETREVLLKYFDILDKDERSLKNALKDLENPFGFAPYIRKAYEHKRNFLTTTRLKASFRPTTF”, the protein production entry is recorded as “failed”.
For “MTPQDAQAFEQLLANCADEPIRSPGAIQPHGVLLTLSEPELRIQQISANVEALLGQPAAQVLGQPLEQLLGDTDGQRIREVLQLPRLSDAPPLHLAVNGARFEGLLHRHQGVLMLELEIQLEHLQPQHLKEQTENLGRLLRRLQTAKTLNELYAISVSEIQAMTGYDRVLIYRFEEEGHGQVIAEATRPTMEVFNGLFFPASDIPQQARELYRSNWLRIIPNADYQPVPLLPALRPDTQQALDLSFATLRSVSPIHCQYMKNMGVLSSMSISLLKGDQLWGLISCGNRQPLLVPHELRIACQTIGQVLSLQISAMEALDISRQREEKVTALASLDQAMRDTPDSVFDGLAQVPQLLLDLTQAGGVAIIEDKQLHCFGNCPPQDEIRALHRWLQGTGQAVFASHHLANVYPPAASYQQVASGVLAMTLPKPVDNGVLWFRPEVKENINWSGNPQKPLDLENSDAGLRLRPRTSFEIWKVEMAGISTKWSHGDRFAANDLRRSALEHDLARQVLREQQAVRARDELVAVVSHDLRNPMTVISMLCGMMQKAFSSDGPHTSRRISSAIDTMQQAASRMNNLLEDLLDTSKIEAGRYSIAPQPLDVSQMFEEAYSLLAPLALDKAIDISFHAEPDLRINADPERLFQVLSNLVGNAIKFTPKQGKVGVVAMSDGEQIVFSVRDSGEGIPTDQLPFIFDRYWTMKEGNPNGTGLGLYITQGIIHAHGGKIEAHSEVGKGSEFRFSVPRASL” the value was “failed”; for “MVVSIGVFDGVHIGHQKVLRTMKEIAFFRKDDSLIYTISYPPEYFLPDFPGLLMTVESRVEMLSRYARTVVLDFFRIKDLTPEGFVERYLSGVSAVVVGRDFRFGKNASGNASFLRKKGVEVYEIEDVVVQGKRVSSSLIRNLVQEGRVEEIPAYLGRYFEIEGIVHKDREFGRKLGFPTANIDRGNEKLVDLKRGVYLVRVHLPDGKKKFGVMNVGFRPTVGDARNVKYEVYILDFEGDLYGQRLKLEVLKFMRDEKKFDSIEELKAAIDQDVKSARNMIDDIINSKFEKEG”, “not failed”; for “PDGPTQLRALNLTEGFAVLHWKPPQNPVDTYDIQVTAPGAPPLQAETPGSAVDYPLHDLVLHTNYTATVRGLRGPNLTSPASITFTTGLEAPRDLEAKEVTP”, “not failed”.
For “MYIPKYFKVTNAEEIWNFVQENSFGTVVTTEQGKPIATHLPLGFNKKDDHYYITGHFAYGNPQWRTFEACEDVLVMFQGPHAYISSSWYSRENVPTWNYQAVHMYGKASMLEKDELAEELTIMLEQKTPTQAFSVLWDKLSPKLLESELKGIVGFKIKVEDIQAAYKLSQNRNETDYMNVIEQLQNEENPNAKQMAELMEDKLKKQI” the value was “not failed”; for “ILQLTSDTLILVDKNGTCLDIDPHSDLWFLQEDRLLGKNLFNLLPDHTFQKLLPDFRRVTQQGITVNRNYRLPLEGGETYYFKCIMQPYDGDKVLCQYRDIT”, “failed”.
For “MTKVERLLINYKTLEEFKKFKEYGIQELSMLEELQDNIIENDSTSPFYGIYFGDKLVARMSLYQVNGKSNPYFDNRQDYLELWKLEVLPGYQNRGYGRALVEFAKSFKMPIRTNPRMKSAEFWNKMNFKTVKYDMARDKGEDPLIWHPDMDREMTPGESA” the value was “not failed”.
Consider “MDAPGPKPLRVARYWLYTGEHPARTTEVPVWNKLCLSVCCAILVLTASSCGADKSSDFLTEGRKLMDAGNAAGAVVLFRNALEKTPADYTLHLELGRAYIALGKLDLAEGELQKCLRQQPDDPPLNLALGELYVARNEPAKALPHLARYEQGAGETAVSRELAGLAHAQARSPEEARAALERSIALDAKRVTPRLALARLFLYRGDLKRAVATVDEALAVAPEDRLALTLRGDLLLRQGDAPGALVVFRKVASLAPGDDYARYMSGLLALQTGDEAGAAAVAASMNKDFKDNSLTLMLDGALAAQRKDYTLAASLFQRSVAMRPSLEGYYKLGMALYGKGDLETALSQFNRVLEATPEYDAARRMTVTILLAQRRVAEARQEAQKLVERNPSDAAAHFMLASAQMAAGDRAGAERSFEAGLALQPAHVPALLQLSRLKQADGRPDEALEDLKAAVVAAPDDLAVRNALFAYHLGRGDTGKGVQVVLEGLRGTPQDAILYTMLVPVYVNMGDEAKGLDAVAQAHRADPDFPDAYLAGLRLHAGAGRAEQALAESEAYLARKPDAPGFLLASGALLDLLGRTAEADARFDKALAANDPRVSFAVAERAVASGQDEKARRVLEEALRQHDQTTLRDALAIQLARMGKPDDALALYTAIETQRPREALLGRYRLLTHLDRHQEAADTARELGRRESASPLPVLLEAAAFERMGQRPQGVALLEAAHRKSGDPELLLAMGGMLERNGDEARAETCYRDALKARPDHVPTLLAYAGLDMRRKEYAKATALYEKAVSIAPDDVVALNNLAMAYLEKASRDATPQKALRLALQAYTRAPDNPAVLDTLGVCMMANGRADDAARAFGRAVVAVPGNPSLRYRHAEALFKAGRKDMAAEELRAALQTPDFPEAAKARDLLRKTGN”, for which the protein production result is reported as “failed”.
With “MKLSNKTQALHDLIAPAVQACDVNLWGIEFIPQGKRSLLRIFIDKPVDETAEPVLNEDGETELGRGIGVQDCVRVTQQVGAILDVHDPISGEYALEVSSPGWDRPFFQLEQMSAYIGQQVALRLISAVENRRKFQAKLLLVDLENEMIQVEVDGKHVLEIDSHNIDKANLIYQD”, the protein production entry is recorded as “failed”.
In the case of “MVGTLYDKMYENFVEEVDAVDNGISQWAEGEPRYALTTTLSARVARLNPTWNHPDQDTEAGFKRAMDLVQEEFLQRLDFYQHSWLPARALVEEALAQRFQVDPSGEIVELAKGACPWKEHLYHLESGLSPPVAIFFVIYTDQAGQWRIQCVPKEPHSFQSRLPLPEPWRGLRDEALDQVSGIPGCIFVHASGFIGGHRTREGALSMARATLAQRSYLPQIS”, the protein production entry was “failed”.
With “MTNLTNYHSHCLYCDGRANMEDFIRFAISEGFSSYGISSHAPLPFSTAWTMEWDRMDDYLSEFARLKEKYADKIELAIGLEIDYLNEESHPAIPRFQELPLDYRIGSVHMLYSPQGKVVDIDTPADIFRQLIDAHFEGDLDYVVHLYYKNLLRMVELGGFDILGHADKMHYNASCYRPGLLDEPWYDALVRDYFAEIARHGYIVEINTKSYHDLGTFYPNERYFPLLKELGIRVQVNSDAHYPERINNSRAEALAALKKVGFDTVVEWHGGQWKDMPLLQLEHHHHHH”, the protein production entry was “not failed”.
For “MELLKEYNPYLEYRDGELFIEGVSLKELAQTFGTPLYVYSSNFIKERFEAYRKAFPDALICYAVKANFNPHLVKLLGELGAGADIVSGGELYLAKKAGIPPERIVYAGVGKTEKELTDAVDSEILMFNVESRQELDVLNEIAGKLGKKARIAIRVNPDVDPKTHPYIATGMQKSKFGVDIREAQKEYEYASKLENLEIVGIHCHIGSQILDISPYREAVEKVVSLYESLTQKGFDIKYLDIGGGLGIKYKPEDKEPAPQDLADLLKDLLENVKAKIILEPGRSIMGNAGILITQVQFLKDKGSKHFIIVDAGMNDLIRPSIYNAYHHIIPVETKERKKVVADIVGPICETGDFLALDREIEEVQRGEYLAVLSAGAYGFAMSSHYNMRPRAAEVLVENGSVKLIRKRENYDYIVEPSLDI” the value was “not failed”; for “VDMDVTTAKLVVGFRGYLTLTQHSLLTYRIALKLFLSMLIGWTSKIYHTLYEDGKIDDSFDVDVEIHHNFQFVLISLDTPEPIAMSNYIRQKLATIKISKEFTNEHLNLLKKEMYGDFIQSLDSIEHLTHQFSLYLSDSDKETYFDIPKIIERLTLKDVVTIGKAFFEKADASDFTVFPK”, “failed”; for “MIDLRSDTVTKPTEEMRKAMAQAEVGDDVYGEDPTINELERLAAETFGKEAALFVPSGTMGNQVSIMAHTQRGDEVILEADSHIFWYEVGAMAVLSGVMPHPVPGKNGAMDPDDVRKAIRPRNIHFPRTSLIAIENTHNRSGGRVVPLENIKEICTIAKEHGINVHIDGARIFNASIASGVPVKEYAGYADSVMFCLSKGLCAPVGSVVVGDRDFIERARKARKMLGGGMRQAGVLAAAGIIALTKMVDRLKEDHENARFLALKLKEIGYSVNPEDVKTNMVILRTDNLKVNAHGFIEALRNSGVLANAVSDTEIRLVTHKDVSRNDIEEALNIFEKLFRKFS”, “not failed”.
